{"source": "paper PMC3064786", "binders": {"B1": {"name": "IL2-Rα promoter fragment (-136 to -76) (dsDNA)", "DNA 1": "ACCGCAAACTATATTGTCATCAAAAAAAAAAAAAAAAAAACACTTCCTATATTTGAGATG", "DNA 2": "CATCTCAAATATAGGAAGTGTTTTTTTTTTTTTTTTTTTGATGACAATATAGTTTGCGGT"}}, "molecular_target": "HMGA1a-FLAG (UniProt P17096 1-107)", "sequence (P17096 whole entry)": "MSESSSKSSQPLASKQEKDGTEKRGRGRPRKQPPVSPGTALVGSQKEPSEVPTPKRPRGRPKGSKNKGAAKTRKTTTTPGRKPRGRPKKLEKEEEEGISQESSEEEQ", "assay": "EMSA", "data": [{"binder": "B1", "values": [{"measurement": "binding result", "result": "binds"}]}]}
